Laboratory results from patent US11597752B2, “Peptides and combination of peptides and scaffolds thereof for use in immunotherapy against colorectal carcinoma (CRC) and other cancers” (priority 2015, dated 2023).

Biological target: HLA-A*02:01 (Homo sapiens, UniProt P04439, D140Y/D185E/D98H/E176V/E277Q/G131W/G231S/I119V/I121R/I166T/I218V/L300P/L318F/N151K/N90K/P208A/P217A/Q86G/Q94H/R138H/R169H/T345S)
Assay: MHC binding assay (UV-ligand exchange, beta2m ELISA, peptide exchange yield)
Details: binding to HLA-A*02:01, β2m ELISA
Excerpt: Candidate peptides for T cell based therapies according to the present invention were further tested for their MHC binding capacity (affinity). The individual peptide-MHC complexes were produced by UV-ligand exchange, where a UV-sensitive peptide is cleaved upon UV-irradiation, and exchanged with the peptide of interest as analyzed. Only peptide candidates that can effectively bind and stabilize the peptide-receptive MHC molecules prevent dissociation of the MHC complexes. To determine the yield of the exchange reaction, an ELISA was performed based on the detection of the light chain (β2m) of stabilized MHC complexes. The assay was performed as generally described in Rodenko et al. (Rodenko et al., 2006).
96 well MAXISorp plates (NUNC) were coated over night with 2 ug/ml streptavidin in PBS at room temperature, washed 4× and blocked for 1 h at 37° C. in 2% BSA containing blocking buffer. Refolded HLA-A*02:01/MLA-001 monomers served as standards, covering the range of 15-500 ng/ml. Peptide-MHC monomers of the UV-exchange reaction were diluted 100 fold in blocking buffer. Samples were incubated for 1 h at 37° C., washed four times, incubated with 2 ug/ml HRP conjugated anti-β2m for 1 h at 37° C., washed again and detected with TMB solution that is stopped with […]. Absorption was measured at 450 nm. Candidate peptides that show a high exchange yield (preferably higher than 50%, most preferred higher than 75%) are generally preferred for a generation and production of antibodies or fragments thereof, and/or T cell receptors or fragments thereof, as they show sufficient avidity to the MHC molecules and prevent dissociation of the MHC complexes.

Substance	Peptide exchange (MHC class I binding score, peptide exchange yield)
82 (QLYEEPDTKL; listed as Homo sapiens) [compound 82]	“++” (≥20% = ++)
83 (LTIEDGIFEV; listed as Homo sapiens) [compound 83]	“+++” (≥50 = +++)
84 (SMVEDITGLRL; listed as Homo sapiens) [compound 84]	“+++” (≥50 = +++)
85 (ILHDINSDGVL; listed as Homo sapiens) [compound 85]	“++” (≥20% = ++)
86 (KVFPGKISV; listed as Homo sapiens) [compound 86]	“++” (≥20% = ++)
87 (LLFDAPDLRL; listed as Homo sapiens) [compound 87]	“+++” (≥50 = +++)
88 (KLDIKVETV; listed as Homo sapiens) [compound 88]	“++++” (≥75% = ++++)
89 (SLIEYEFRV; listed as Homo sapiens) [compound 89]	“+++” (≥50 = +++)
90 (GLLKPGLNVVL; listed as Homo sapiens) [compound 90]	“+++” (≥50 = +++)
91 (TVDVATPSV; listed as Homo sapiens) [compound 91]	“+++” (≥50 = +++)
92 (WIDDTSAFV; listed as Homo sapiens) [compound 92]	“+++” (≥50 = +++)
93 (SLQELRLLL; listed as Homo sapiens) [compound 93]	“++++” (≥75% = ++++)
94 (KSMDIVLTV; listed as Homo sapiens) [compound 94]	“+++” (≥50 = +++)
95 (AILDAHIEV; listed as Homo sapiens) [compound 95]	“++++” (≥75% = ++++)
96 (KLYSRLVYV; listed as Homo sapiens) [compound 96]	“++” (≥20% = ++)
97 (ALWWGVVTV; listed as Homo sapiens) [compound 97]	“++” (≥20% = ++)
98 (AMNGKSFSV; listed as Homo sapiens) [compound 98]	“++” (≥20% = ++)
99 (KLLEVDLDTV; listed as Homo sapiens) [compound 99]	“+++” (≥50 = +++)
100 (SLDDFLATA; listed as Homo sapiens) [compound 100]	“+++” (≥50 = +++)
101 (GLSEGHTFQV; listed as Homo sapiens) [compound 101]	“+++” (≥50 = +++)
102 (KILVSLIEV; listed as Homo sapiens) [compound 102]	“+++” (≥50 = +++)

Substance	Peptide exchange (MHC class I binding score, peptide exchange yield)
103 (FLFGYPKRL; listed as Homo sapiens) [compound 103]	“++” (≥20% = ++)
104 (ILLTIKDDTIYL; listed as Homo sapiens) [compound 104]	“+++” (≥50 = +++)
105 (YALDLSTFL; listed as Homo sapiens) [compound 105]	“+++” (≥50 = +++)
106 (SLISEKILL; listed as Homo sapiens) [compound 106]	“+++” (≥50 = +++)
107 (ALLGGGPYML; listed as Homo sapiens) [compound 107]	“+++” (≥50 = +++)
108 (SLAELVPGVGGI; listed as Homo sapiens) [compound 108]	“+++” (≥50 = +++)
109 (ALDGDQMEL; listed as Homo sapiens) [compound 109]	“++” (≥20% = ++)
110 (LLGELPRLLLL; listed as Homo sapiens) [compound 110]	“+++” (≥50 = +++)
112 (KLGQVLIYL; listed as Homo sapiens) [compound 112]	“++” (≥20% = ++)
113 (ILYDLQQNL; listed as Homo sapiens) [compound 113]	“++” (≥20% = ++)
114 (TAVGHALVL; listed as Homo sapiens) [compound 114]	“+” (≥10% = +)
115 (SLFDVSHML; listed as Homo sapiens) [compound 115]	“+++” (≥50 = +++)
116 (LVYQFVHPI; listed as Homo sapiens) [compound 116]	“++” (≥20% = ++)
117 (TLQPVDNSTISL; listed as Homo sapiens) [compound 117]	“++” (≥20% = ++)
118 (LLADLKTMV; listed as Homo sapiens) [compound 118]	“+++” (≥50 = +++)
119 (ILYQTVTGL; listed as Homo sapiens) [compound 119]	“++” (≥20% = ++)
120 (VLYEGVDEV; listed as Homo sapiens) [compound 120]	“++” (≥20% = ++)
121 (SLAPNIISQL; listed as Homo sapiens) [compound 121]	“+++” (≥50 = +++)
122 (SLMGMVLKL; listed as Homo sapiens) [compound 122]	“+++” (≥50 = +++)
125 (KLGDFGLLVEL; listed as Homo sapiens) [compound 125]	“++++” (≥75% = ++++)

Now from value to substance:

Peptide exchange (MHC class I binding score, peptide exchange yield)	Substance
“+++” (≥50 = +++)	126 (TLAKYLMEL; listed as Homo sapiens) [compound 126]
“++” (≥20% = ++)	128 (MLDDRAYLV; listed as Homo sapiens) [compound 128]
“+++” (≥50 = +++)	129 (VLIDVLKEL; listed as Homo sapiens) [compound 129]
“++” (≥20% = ++)	130 (GLGGSQLIDTHL; listed as Homo sapiens) [compound 130]
“++” (≥20% = ++)	131 (KLLDVVHPA; listed as Homo sapiens) [compound 131]
“++++” (≥75% = ++++)	134 (GVAGGSILKGV; listed as Homo sapiens) [compound 134]
“++” (≥20% = ++)	135 (KLQEEIPVL; listed as Homo sapiens) [compound 135]
“+++” (≥50 = +++)	136 (KLFDIFSQQV; listed as Homo sapiens) [compound 136]
“+++” (≥50 = +++)	137 (QLTEIKPLL; listed as Homo sapiens) [compound 137]
“+++” (≥50 = +++)	138 (KQFEGTVEI; listed as Homo sapiens) [compound 138]
“+++” (≥50 = +++)	139 (VLLNEILEQV; listed as Homo sapiens) [compound 139]
“+++” (≥50 = +++)	140 (LLNEILEQV; listed as Homo sapiens) [compound 140]
“+++” (≥50 = +++)	143 (KLSDVWKEL; listed as Homo sapiens) [compound 143]
“+++” (≥50 = +++)	144 (LLNDRIWLA; listed as Homo sapiens) [compound 144]
“+++” (≥50 = +++)	145 (LLLEVVKQV; listed as Homo sapiens) [compound 145]
“++” (≥20% = ++)	146 (ALSDETWGL; listed as Homo sapiens) [compound 146]
“++++” (≥75% = ++++)	147 (TLTELRAFL; listed as Homo sapiens) [compound 147]
“+++” (≥50 = +++)	148 (RLLENMTEVV; listed as Homo sapiens) [compound 148]
“+++” (≥50 = +++)	149 (YQFDKVGILTL; listed as Homo sapiens) [compound 149]
“+++” (≥50 = +++)	151 (SAQGSDVSLTACKV; listed as Homo sapiens) [compound 151]
